According to the supplement of paper PMC10899765:

What was measured:
Details in all cases: 20 nM; 72 h
[1] = test system: MCF10A; assay: one-nucleolus phenotype percent effect (relative to siNT 0% and siNOL11 100%); higher = more cells with one nucleolus (ribosome biogenesis inhibition)
Protocol: (§1)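 After 72 h, cells were fixed and stained with Hoechst and anti-fibrillarin, and nucleoli per nucleus were counted with CellProfiler. Values are plate-adjusted percent effect for the one-nucleolus and 5+ nucleoli phenotypes, normalised to siNT (0%) and to the positive controls siNOL11 or siKIF11 (100%), as the mean of biological triplicates. Percent viability is the nuclei count relative to siNT.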

[2] = test system: MCF10A; assay: 5+ nucleoli phenotype percent effect (relative to siNT 0% and siKIF11 100%); higher = more cells with five or more nucleoli
Protocol: as §1

[3] = test system: MCF10A; assay: percent viability (nuclei count relative to siNT); higher = more viable cells
Protocol: as §1

Sequence	one-nucleolus phenotype percent effect [1]	5+ nucleoli phenotype percent effect [2]	percent viability [3]
CAAAACUGGCAAUUACUUUUGC [hsa-miR-548a-3p]	-17.2%	45.7%	77.4%
CAAAAGCAAUCGCGGUUUUUGC [hsa-miR-548e-5p]	-2.62%	44%	60.8%
CAAAAGUAAUUGUGGAUUUUGU [hsa-miR-548n]	-23.6%	52.2%	137%
CAAAAGUGAUCGUGGUUUUUG [hsa-miR-548t-5p]	-10.3%	9.99%	51.5%
CAAAAGUGAUUGUGGUUUUUGC [hsa-miR-548az-5p]	-15.6%	45.1%	149%
CAAACCACACUGUGGUGUUAGA [hsa-miR-497-3p]	-11.5%	4.48%	49.6%
CAAACCCCUGUCUACCCGCAG [hsa-miR-6771-3p]	15.7%	-19.1%	40.5%
CAAAGAAUUCUCCUUUUGGGCU [hsa-miR-186-5p]	-14.6%	42.9%	59.3%
CAAAGACUGCAAUUACUUUUGCG [hsa-miR-548u]	-31.1%	43.4%	75.7%
CAAAGAGGAAGGUCCCAUUAC [hsa-miR-583]	27.5%	-24.7%	69.2%
CAAAGCGCUCCCCUUUAGAGGU [hsa-miR-518b]	61.9%	-39.6%	27.8%
CAAAGCGCUUCCCUUUGGAGC [hsa-miR-518d-3p]	42.6%	-31.6%	29.8%
CAAAGCGCUUCUCUUUAGAGUGU [hsa-miR-518c-3p]	37.7%	-26.1%	44.9%
CAAAGGCCACAUUCUCCUGUGCAC [hsa-miR-6768-3p]	28%	-27.1%	23.3%
CAAAGUCCUUCCUAUUUUUCCC [hsa-miR-6507-3p]	-3.22%	-15.5%	104%
CAAAGUGAUGAGUAAUACUGGCUG [hsa-miR-3609]	-12.6%	2.01%	98.3%
CAAAGUGCCUCCCUUUAGAGUG [hsa-miR-519d]	-20.2%	62.9%	72.3%
CAAAGUGCUCAUAGUGCAGGUAG [hsa-miR-20b-5p]	-12%	9.26%	58.4%
CAAAGUGCUGUUCGUGCAGGUAG [hsa-miR-93-5p]	-18.1%	59.5%	64.1%
CAAAGUGCUUACAGUGCAGGUAG [hsa-miR-17-5p]	-20.9%	27.3%	71.5%

Sequence	one-nucleolus phenotype percent effect [1]	5+ nucleoli phenotype percent effect [2]	percent viability [3]
CAAAGUUUAAGAUCCUUGAAGU [hsa-miR-561-3p]	-26.2%	23.4%	182%
CAAAUAAUACCACAGUGGGUGU [hsa-miR-5692a]	-17.8%	46.5%	105%
CAAAUGAGCUUAAUUUCCUUUU [hsa-miR-1252-3p]	-15.1%	37.8%	160%
CAAAUGGACAGGAUAACACCU [hsa-miR-4694-3p]	11.8%	-11.7%	35.9%
CAAAUUCGUAUCUAGGGGAAUA [hsa-miR-10a-3p]	-15.8%	38.1%	84.8%
CAACAAAUCACAGUCUGCCAUA [hsa-miR-7-1-3p]	-2.83%	23.6%	98.9%
CAACAAAUCCCAGUCUACCUAA [hsa-miR-7-2-3p]	-10.8%	4.35%	104%
CAACACCAGUCGAUGGGCUGU [hsa-miR-21-3p]	35.5%	-31.2%	52.9%
CAACCACCACUGUCUCUCCCCAG [hsa-miR-6776-3p]	-24.4%	48.4%	91.3%
CAACCCUAGGAGAGGGUGCCAUUCA [hsa-miR-652-5p]	12.5%	-17.7%	46.2%
CAACCUCGACGAUCUCCUCAGC [hsa-miR-3150a-5p]	-25.7%	22.1%	171%
CAACCUCGAGGAUCUCCCCAGC [hsa-miR-3150b-5p]	-5.6%	20.8%	48.1%
CAACCUGGAGGACUCCAUGCUG [hsa-miR-490-3p]	-12.6%	55.8%	41.3%
CAACGGAAUCCCAAAAGCAGCUG [hsa-miR-191-5p]	11.8%	2.25%	29.2%
CAACUAGACUGUGAGCUUCUAG [hsa-miR-708-3p]	-31%	46.1%	199%
CAAGAACCUCAGUUGCUUUUGU [hsa-miR-548b-3p]	-16.6%	39%	83.5%
CAAGCCUCUCCUGCCCUUCCAG [hsa-miR-7109-3p]	-12.1%	31.1%	51.1%
CAAGCUCGCUUCUAUGGGUCUG [hsa-miR-99a-3p]	23.3%	-16.1%	70%
CAAGCUCGUGUCUGUGGGUCCG [hsa-miR-99b-3p]	8.24%	-2.82%	84.3%
CAAGCUUGUAUCUAUAGGUAUG [hsa-miR-100-3p]	-5.48%	19.2%	77.2%

Sequence	one-nucleolus phenotype percent effect [1]	5+ nucleoli phenotype percent effect [2]	percent viability [3]
CAAGGAGACGGGAACAUGGAGC [hsa-miR-4428]	-16.1%	32.8%	69.6%
CAAGGCCAAAGGAAGAGAACAG [hsa-miR-4753-5p]	2.71%	-19.1%	31.8%
CAAGGGACCAAGCAUUCAUUAU [hsa-miR-4475]	7.86%	-16.1%	37.7%
CAAGUCACUAGUGGUUCCGUU [hsa-miR-224-5p]	15.4%	-41%	38.7%
CAAGUCUUAUUUGAGCACCUGUU [hsa-miR-1264]	-11.7%	21.1%	70%
CAAUCACUAACUCCACUGCCAU [hsa-miR-34b-3p]	-6.72%	11%	50.1%
CAAUGUGAUCUUUUGGAUGUA [hsa-miR-8066]	56.9%	-37.9%	30.2%
CAAUGUUUCCACAGUGCAUCAC [hsa-miR-33a-3p]	-10.4%	2.57%	51.1%
CAAUUCUCAAAGGAGCCUCCC [hsa-miR-5571-5p]	34%	-26.3%	32.7%
CAAUUUAGUGUGUGUGAUAUUU [hsa-miR-32-3p]	-22.3%	35.1%	80.6%
CACAAGGUAUUGGUAUUACCU [hsa-miR-624-3p]	71%	-46.2%	21.1%
CACACAAGUGGCCCCCAACACU [hsa-miR-4731-3p]	8.2%	-12.1%	29.9%
CACACACACACACACACGUAU [hsa-miR-8485]	57.6%	-36.9%	15.8%
CACACACUGCAAUUACUUUUGC [hsa-miR-603]	-5.16%	19.5%	60.9%
CACACAGGAAAAGCGGGGCCCUG [hsa-miR-6768-5p]	-20.7%	24.4%	55.7%
CACACAUAGCAGGUGUAUAUA [hsa-miR-4789-3p]	-24.6%	39.4%	67.3%
CACAGCAAGUGUAGACAGGCA [hsa-miR-3120-3p]	-20.3%	22.9%	51.8%
CACAGGACUGACUCCUCACCCCAGUG [hsa-miR-4700-3p]	-16%	43.2%	83.5%
CACAGGCUUAGAAAAGACAGU [hsa-miR-4438]	-2.67%	25.6%	11.8%
